Laboratory results reported in patent publication US20200055920A1 (published 2020).
Read-outs that look alike come from different tables or passages of the source.

T1: GDF3 (UniProt Q9NR23 251-364)
T1 construct: also called VGR2
T1 sequence (looked up): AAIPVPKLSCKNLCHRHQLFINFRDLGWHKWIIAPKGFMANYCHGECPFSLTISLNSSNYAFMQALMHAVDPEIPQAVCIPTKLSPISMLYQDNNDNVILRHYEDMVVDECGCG

T2: GDF11 (UniProt O95390 299-407)
T2 construct: also called BMP11
T2 sequence (looked up): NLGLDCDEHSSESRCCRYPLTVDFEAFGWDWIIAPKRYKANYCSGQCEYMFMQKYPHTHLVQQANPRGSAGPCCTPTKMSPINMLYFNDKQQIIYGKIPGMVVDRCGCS

T3: GDF8 (UniProt O14793 267-375)
T3 construct: also called myostatin; growth and differentiation factor-8
T3 sequence (looked up): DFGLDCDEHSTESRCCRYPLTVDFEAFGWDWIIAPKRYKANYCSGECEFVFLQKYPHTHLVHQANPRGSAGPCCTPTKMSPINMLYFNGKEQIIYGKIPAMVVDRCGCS

T4: BMP9 (UniProt Q9UK05 320-429)
T4 construct: also called GDF2
T4 sequence (looked up): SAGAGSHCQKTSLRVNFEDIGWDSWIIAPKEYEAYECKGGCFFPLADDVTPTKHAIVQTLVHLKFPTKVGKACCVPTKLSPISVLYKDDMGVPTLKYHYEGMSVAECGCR

T5: Activin A (UniProt P08476 311-426)
T5 construct: also called βAβA
T5 sequence (looked up): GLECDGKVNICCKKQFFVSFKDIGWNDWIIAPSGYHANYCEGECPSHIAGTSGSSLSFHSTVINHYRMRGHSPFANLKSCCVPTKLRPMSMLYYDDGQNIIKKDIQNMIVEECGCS

T6: Activin B (UniProt P09529 293-407)
T6 construct: also called βBβB
T6 sequence (looked up): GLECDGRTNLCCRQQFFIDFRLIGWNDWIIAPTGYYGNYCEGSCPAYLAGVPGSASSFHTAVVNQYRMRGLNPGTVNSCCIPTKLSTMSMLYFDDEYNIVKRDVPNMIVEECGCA

T7: BMP10 (UniProt O95393 317-424)
T7 sequence (looked up): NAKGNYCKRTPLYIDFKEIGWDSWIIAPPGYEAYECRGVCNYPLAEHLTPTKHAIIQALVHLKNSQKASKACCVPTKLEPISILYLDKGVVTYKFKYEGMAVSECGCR

T8: BMP6 (UniProt P22004 382-513, limits assumed)
T8 sequence (looked up): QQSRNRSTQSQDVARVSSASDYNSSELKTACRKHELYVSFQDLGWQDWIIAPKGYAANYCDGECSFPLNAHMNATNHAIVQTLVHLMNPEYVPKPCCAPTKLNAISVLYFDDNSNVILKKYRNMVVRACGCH

T9: BMP15 (UniProt O95972 268-392)
T9 construct: also called GDF9b
T9 sequence (looked up): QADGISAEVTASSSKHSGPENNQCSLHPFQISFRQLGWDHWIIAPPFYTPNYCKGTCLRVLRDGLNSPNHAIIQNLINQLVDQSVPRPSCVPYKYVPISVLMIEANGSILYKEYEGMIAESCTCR

T10: GDF6 (UniProt Q6KF10 336-455, limits assumed)
T10 construct: also called BMP13
T10 sequence (looked up): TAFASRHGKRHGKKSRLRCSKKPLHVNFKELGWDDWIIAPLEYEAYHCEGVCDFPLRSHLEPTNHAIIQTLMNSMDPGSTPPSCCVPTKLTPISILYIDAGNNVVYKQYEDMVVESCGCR

T11: BMP7 (UniProt P18075 293-431)
T11 construct: also called osteogenic protein-1; OP-1
T11 sequence (looked up): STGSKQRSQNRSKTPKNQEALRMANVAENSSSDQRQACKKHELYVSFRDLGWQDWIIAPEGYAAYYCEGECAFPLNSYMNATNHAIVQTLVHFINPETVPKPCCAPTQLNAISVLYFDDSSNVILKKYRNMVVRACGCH

T12: TGFβ2 (UniProt P61812 303-414)
T12 construct: also called TGF-beta2
T12 sequence (looked up): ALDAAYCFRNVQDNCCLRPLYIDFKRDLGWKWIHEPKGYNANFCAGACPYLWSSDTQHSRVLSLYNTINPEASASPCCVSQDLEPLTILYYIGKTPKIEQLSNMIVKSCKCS

T13: TGFβ3 (UniProt P10600 301-412)
T13 construct: also called TGF-beta3
T13 sequence (looked up): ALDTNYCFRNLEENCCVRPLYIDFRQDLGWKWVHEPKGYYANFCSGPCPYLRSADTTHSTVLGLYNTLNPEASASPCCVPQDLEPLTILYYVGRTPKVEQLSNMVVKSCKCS

B1: single-arm ActRIIB-Fc heterodimeric complex (Fc fusion)
chain 1: GRGEAETRECIYYNANWELERTNQSGLERCEGEQDKRLHCYASWRNSSGTIELVKKGCWLDDFNCYDRQECVATEENPQVYFCCCEGNFCNERFTHLPEAGGPEVTYEPPPTAPTGGGTHTCPPCPAPELLGGPSVFLFPPKPKDTLMISRTPEVTCVVVDVSHEDPEVKFNWYVDGVEVHNAKTKPREEQYNSTYRVVSVLTVLHQDWLNGKEYKCKVSNKALPAPIEKTISKAKGQPREPQVYTLPPSRKEMTKNQVSLTCLVKGFYPSDIAVEWESNGQPENNYKTTPPVLKSDGSFFLYSKLTVDKSRWQQGNVFSCSVMHEALHNHYTQKSLSLSPGK
chain 2: SNTKVDKRVTGGGTHTCPPCPAPELLGGPSVFLFPPKPKDTLMISRTPEVTCVVVDVSHEDPEVKFNWYVDGVEVHNAKTKPREEQYNSTYRVVSVLTVLHQDWLNGKEYKCKVSNKALPAPIEKTISKAKGQPREPQVYTLPPSREEMTKNQVSLTCLVKGFYPSDIAVEWESNGQPENNYDTTPPVLDSDGSFFLYSDLTVDKSRWQQGNVFSCSVMHEALHNHYTQKSLSLSPGK
notes: The C-terminal lysine may optionally be removed; also called ActRIIB-Fc:Fc heterodimer; single-arm ActRIIB-Fc:Fc

Legend:
Assay in all cases: Biacore SPR; receptor-Fc captured by anti-Fc antibody, ligand injected
[1] = biological target: T1, GDF3
Description: (§1) Ligands were injected and allowed to flow over the captured receptor protein.

[2] = biological target: T2, GDF11
Description: as §1

[3] = biological target: T3, GDF8
Description: as §1

[4] = biological target: T4, BMP9
Description: as §1

[5] = biological target: T5, Activin A
Description: as §1

[6] = biological target: T6, Activin B
Description: as §1

[7] = biological target: T7, BMP10
[8] = biological target: T8, BMP6
[9] = biological target: T9, BMP15
Description: A Biacore™-based binding assay was used to compare ligand binding selectivity of the single-arm BMPRII-Fc heterodimeric complex described above with that of an BMPRII-Fc homodimeric complex. The single-arm BMPRII-Fc and homodimeric BMPRII-Fc were independently captured onto the system using an anti-Fc antibody. Ligands were injected and allowed to flow over the captured receptor protein.

[10] = biological target: T10, GDF6
Description: as §1

[11] = biological target: T11, BMP7
[12] = biological target: BMP2 (UniProt P12643 283-396)
Chain of BMP2 (P12643 283-396 limits assumed): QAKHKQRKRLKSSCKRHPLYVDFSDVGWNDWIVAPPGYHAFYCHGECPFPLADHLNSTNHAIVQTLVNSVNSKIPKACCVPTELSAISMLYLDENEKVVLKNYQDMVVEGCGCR

[13] = biological target: T12, TGFβ2
Description: as §1

[14] = biological target: T14, TGFβ1 (UniProt P01137 279-390)
T14 construct: also called TGF-beta1
T14 sequence (P01137 279-390 limits assumed): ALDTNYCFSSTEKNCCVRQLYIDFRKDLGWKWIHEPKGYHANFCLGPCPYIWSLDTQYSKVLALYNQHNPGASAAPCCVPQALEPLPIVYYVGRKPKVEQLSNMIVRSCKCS
Description: as §1

[15] = biological target: T13, TGFβ3
Description: as §1

[16] = biological target: T7, BMP10; remark: listed apart in the source
Description: as §1

[17] = biological target: T8, BMP6; remark: listed apart in the source
Description: as §1

Molecule	Kd [1]	koff [1]	kon [1]	Kd [2]	koff [2]	kon [2]	Kd [3]	koff [3]	kon [3]	Kd [4]	koff [4]	kon [4]	Kd [5]	koff [5]	kon [5]	Kd [6]	koff [6]	kon [6]	Kd [7]	koff [7]	further results
ActRIIB-Fc homodimer (Fc fusion)	1.5 nM	0.0022 s⁻¹	1.4e+06 M⁻¹ s⁻¹	0.002 nM	0.00011 s⁻¹	5e+07 M⁻¹ s⁻¹	0.28 nM	0.00023 s⁻¹	830000 M⁻¹ s⁻¹	0.078 nM	0.0011 s⁻¹	1.4e+07 M⁻¹ s⁻¹	0.019 nM	0.00023 s⁻¹	1.2e+07 M⁻¹ s⁻¹	0.02 nM	0.0001 s⁻¹	5.1e+06 M⁻¹ s⁻¹	0.011 nM	0.00026 s⁻¹	kon [7]: 2.3e+07 M⁻¹ s⁻¹; Kd [8]: 0.21 nM; koff [8]: 0.0068 s⁻¹; kon [8]: 3.2e+07 M⁻¹ s⁻¹
BMPRII-Fc homodimer (Fc fusion)	–	–	–	–	–	–	–	–	–	2.1 nM	0.026 s⁻¹	1.2e+07 M⁻¹ s⁻¹	–	–	–	3.8 nM	0.075 s⁻¹	2e+07 M⁻¹ s⁻¹	0.098 nM	0.0025 s⁻¹	Kd [9]: 0.28 nM; koff [9]: 0.0028 s⁻¹; kon [9]: 9.9e+06 M⁻¹ s⁻¹; Kd [10]: > 88 nM; kon [7]: 2.6e+07 M⁻¹ s⁻¹; Kd [8]: > 8.9 nM; Kd [11]: > 38 nM; Kd [12]: > 2000 nM
TGFβRII-Fc homodimer (Fc fusion)	–	–	–	–	–	–	–	–	–	–	–	–	–	–	–	–	–	–	–	–	Kd [13]: > 44 nM; Kd [14]: 0.025 nM; koff [14]: 0.0011 s⁻¹; kon [14]: 4.2e+07 M⁻¹ s⁻¹; Kd [15]: 0.099 nM; koff [15]: 0.0059 s⁻¹; kon [15]: 5.9e+07 M⁻¹ s⁻¹
B1	12 nM	0.013 s⁻¹	1.1e+06 M⁻¹ s⁻¹	0.02 nM	0.00072 s⁻¹	3.6e+07 M⁻¹ s⁻¹	0.29 nM	0.001 s⁻¹	3.5e+06 M⁻¹ s⁻¹	–	–	–	0.099 nM	0.003 s⁻¹	3e+07 M⁻¹ s⁻¹	0.12 nM	0.00042 s⁻¹	3.5e+06 M⁻¹ s⁻¹	–	–	binding result [4]: no binding; Kd [16]: 0.12 nM; koff [16]: 0.0097 s⁻¹; kon [16]: 8e+07 M⁻¹ s⁻¹; Kd [17]: 0.69 nM; koff [17]: 0.029 s⁻¹; kon [17]: 4.2e+07 M⁻¹ s⁻¹
